Experimental data: PMC11841054 (Journal of Bacteriology, 2025)

Target: GlnA3Mt (Rv1878), gamma-glutamylspermine synthetase of Mycobacterium tuberculosis (Mycobacterium tuberculosis H37Rv) (UniProt O07752)
Assay: SEC

Substance: GlnA3Mt (Rv1878), gamma-glutamylspermine synthetase of Mycobacterium tuberculosis (from UniProt O07752 1-450) (enzyme)
- stoichiometry N: 12
